Experimental data taken from US20190142860A1, “NUCLEIC ACID BASED TIA-1 INHIBITORS” (Aquinnah Pharmaceuticals, Inc., priority 2015, published 2019).

Legend:
[1] = biological target: Nucleolysin TIA-1 (endogenous mouse TIA1) (mouse) (UniProt P52912); experiment: TIA1 IP-MS, WT1 cortex
[2] = biological target: Nucleolysin TIA-1 (endogenous mouse TIA1) (mouse) (UniProt P52912); experiment: TIA1 IP-MS, WT2 cortex
[3] = biological target: Nucleolysin TIA-1 (endogenous mouse TIA1) (mouse) (UniProt P52912); experiment: TIA1 IP-MS, WT3 cortex
[4] = biological target: Nucleolysin TIA-1 (endogenous mouse TIA1) (mouse) (UniProt P52912); experiment: TIA1 IP-MS, tau KO 1 cortex
[5] = biological target: Nucleolysin TIA-1 (endogenous mouse TIA1) (mouse) (UniProt P52912); experiment: TIA1 IP-MS, tau KO 2 cortex
[6] = biological target: Nucleolysin TIA-1 (endogenous mouse TIA1) (mouse) (UniProt P52912); experiment: TIA1 IP-MS, tau KO 3 cortex

Sequence of UniProt P52912 (P52912 whole entry): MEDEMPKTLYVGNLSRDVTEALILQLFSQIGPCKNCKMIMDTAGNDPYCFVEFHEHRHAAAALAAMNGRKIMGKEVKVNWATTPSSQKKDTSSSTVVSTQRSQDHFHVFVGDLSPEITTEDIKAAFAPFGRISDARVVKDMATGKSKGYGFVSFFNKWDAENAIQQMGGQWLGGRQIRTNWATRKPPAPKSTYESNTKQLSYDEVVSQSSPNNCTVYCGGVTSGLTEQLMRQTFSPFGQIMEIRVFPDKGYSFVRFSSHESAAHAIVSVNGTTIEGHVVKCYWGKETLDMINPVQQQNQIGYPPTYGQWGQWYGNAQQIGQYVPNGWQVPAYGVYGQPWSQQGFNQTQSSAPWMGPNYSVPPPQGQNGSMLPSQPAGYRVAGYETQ

total ion current (normalized to TIA1 = 1000) [1]	total ion current (normalized to TIA1 = 1000) [2]	total ion current (normalized to TIA1 = 1000) [3]	total ion current (normalized to TIA1 = 1000) [4]	total ion current (normalized to TIA1 = 1000) [5]	total ion current (normalized to TIA1 = 1000) [6]	Substance
39.3	0	0	30.3	0	0	Protein kinase C gamma type (from UniProt P63318 1-697)
0	0	49.8	0	0	0	Puromycin-sensitive aminopeptidase (from UniProt Q11011 1-920)
2.62	76.3	45.1	8.48	72.5	0	Putative adenosylhomocysteinase 3 (from UniProt Q68FL4 2-613)
0	80.3	0	0	104	0	Pyridoxal kinase (from UniProt Q8K183 1-312)
0	60.4	95.5	0	51	0	Pyruvate dehydrogenase E1 component subunit beta, mitochondrial (from UniProt Q9D051 31-359)
6.73	32.5	0	0	0	0	RNA-binding protein EWS (from UniProt Q61545 1-655)
0	40.4	0	17	0	0	Rabphilin-3A (from UniProt P47708 1-681)
0	126	302	0	185	0	Ras-related protein Rab-5A (from UniProt Q9CQD1 1-215)
0	194	114	0	85.5	0	Septin-5 (from UniProt Q9Z2Q6 1-369)
5.71	0	0	7.66	0	0	Serine protease HTRA1 (from UniProt Q9R118 23-480)
0	65.8	0	0	0	0	Serine--tRNA ligase, cytoplasmic (from UniProt P26638 1-512)
0	306	71.1	0	67.1	0	Serine/arginine-rich splicing factor 2 (from UniProt Q62093 2-221)
0	41.6	0	0	0	0	Serine/arginine-rich splicing factor 4 (from UniProt Q8VE97 1-489)
3.65	136	79.5	99.4	24.6	0	Serine/threonine-protein phosphatase PP1-beta catalytic subunit (from UniProt P62141 2-327)
0	15.1	25.3	0	30.7	0	Sodium/potassium-transporting ATPase subunit beta-2 (from UniProt P14231 1-290)
0	107	190	0	90.2	0	Solute carrier family 2, facilitated glucose transporter member 3 (from UniProt P32037 1-493)
0	22.7	0	0	0	0	Sorting and assembly machinery component 50 homolog (from UniProt Q8BGH2 1-469)
1.59	0	0	0	0	0	Splicing factor 45 (from UniProt Q8JZX4 2-405)
0	162	0	0	107	0	Splicing factor U2AF 65 kDa subunit (from UniProt P26369 2-475)
0	173	77.5	0	101	0	Stress-70 protein, mitochondrial (from UniProt P38647 47-679)
0	61.7	86.3	0	49	0	Succinyl-CoA ligase [ADP-forming] subunit beta, mitochondrial (from UniProt Q9Z2I9 54-463)
